The values that follow come from patent US20180134794A1 (Regeneron, published 2018).

B1: H4H13295P2 (antibody, human IgG4, V domains shown)
VH: QVQLVESGGGVVQPGRSLRVSCVVSGFTFSSFGMHWVRQAPDKGLEWVAVIWYDGSNDYYSDSVKGRFTISRDNSKNTLFLQMNRLRAEDTAVYYCARANNWNRFDAFDLWGQGTMVTVSS
VL: not shown
B2: H4H13319P2 (antibody, human IgG4, V domains shown)
VH: QVQLVESGGGVVQPGRSLRLSCAASGFTFSSFAMHWVRQAPGKGLEWVAVIWYDGSNDYYAASVKGRFTISRDNSKNTLYLEMNRLRAEDTAVYHCARDNWNYWGGMDVWGQGTTVTVSS
VL: not shown
B3: H4H13291P2 (antibody, human IgG4, V domains shown)
VH: QVQLVESGGGVVQPGGSLRLSCAASGFTFSGYGMHWVRQAPGKGLEWMAVIWYDGSNDYYPDSVKGRFTISRDNSKNTLYLQMNSLRVEDTAVYYCARDAWDLLRSFDYWGQGTLVTVSS
VL: not shown
B4: H4H13290P2 (antibody, human IgG4, V domains shown)
VH: QVQLQESGPGLVKPSETLSLTCTVSGDSISSYYWTWIRQPPGKGLEWIGYIFYRGGTTYNPSLKSRVTISVDTSKNQFSLKLRSVTAADTAVYYCARGDDLLVVTSVYWYIDLWGRGTLVTVSS
VL: not shown
B5: H4H13311P2 (antibody, human IgG4, V domains shown)
VH: QVQLVESGGGVVQPGRSLRLSCAASGFTFSSYAMHWVRQAPGRGLEWVAVIWHDGDVEYYVDSVKDRFTISRDNSKSTLYLQMNSLRAEDTALYYCAREAWDLLRPFDYWGQGTLVTVSS
VL: not shown
B6: H4H13331P2 (antibody, human IgG4, V domains shown)
VH: QVQLQESGPGLVKSSETLSLTCTVSGGSIRNFYWSWLRQPPGKGLEWIGHINYNGGTDYNPSLKSRVTISVDTSKNQFSLNLNSVTAADTAVYYCARQRFYGMDVWGPGTTVTVSS
VL: not shown
B7: H4H13309P2 (antibody, human IgG4, V domains shown)
VH: QVQLVQSGTEVKEPGASVKVSCKASGYSFTTYGISWLRQAPGQGLEWMGWISTYNGDTISAQMLQDRVTLTADTSTRTAYMELRSLRSDDTAVYYCARGHEYDSLVYSYWGQGTLVTVSS
VL: not shown
B8: H4H13300P2 (antibody, human IgG4, V domains shown)
VH: QVQLVESGGGVVQPGRSLRLSCAVSGFTFSSYGMHWVRQAPGKGLEWVANIWYDGTNDYYPYSVKGRFTISRDNSQNTLYLQMNSLRAEDTAVYYCAREDFINYRSFDYWGQGTLVTVSS
VL: not shown
B9: H4H13318P2 (antibody, human IgG4, V domains shown)
VH: QVQLVESGGGVVQPGRSLRLSCVASGFSFSNFGMHWVRQAPGKGLEWVAIIWYDGSNKYYSDSVKGRFTISRDNSKNTLYLQMNSLRVDDTAVYYCARFDRWKFDAFDIWGQGTMVTVSS
VL: not shown
B10: H4H13299P2 (antibody, human IgG4, V domains shown)
VH: EVQLVESGGGLVQPGGSLRLSCAASGFIFSNYEMNWVRQAPGKGLEWISYITSSGNMKYYADSVKGRFTISRDNDKNSLYLQMSSLRVEDTAVYYCVRGGRFLEWLTYYVMVVWGQGTTVTVSS
VL: not shown
B11: H4H14640D (bispecific antibody, human IgG4, V domains shown)
VH 1: B7 VH
VH 2: EVQLVESGGGLVQPGGSLRLSCAASGFIVTTNYMTWLRQAPGKGLEWVSLIYSSGHTYYADSVKGRFTISRHNSKNTLYLQMDSLRAEDTAVYYCASAFAADVFDIWGQGTMVTVSS
VL: not shown
B12: H4H14634D (bispecific antibody, human IgG4, V domains shown)
VH 1: B4 VH
VH 2: B11 VH 2
VL: not shown
B13: H4H14635D (bispecific antibody, human IgG4, V domains shown)
VH 1: B1 VH
VH 2: B11 VH 2
VL: not shown
notes: human IgG4 Fc; also called No. 42; MET×MET bispecific antibody
B14: H4H13306P2 (antibody, human IgG4, V domains shown)
VH: EVQLVESGGGLVQPGTSLRLSCAASGFTFDDYAMHWVRQAPGKGLEWVSGITWNSYNIDYADSVKGRFTISRDNAKNSLYLQMNSLRAEDTALYYCAKDDDYSNYVYFDYWGQGTLVTVSS
VL: not shown
B15: H4H14639D-Maytansinoid A (bispecific antibody, human IgG4, V domains shown)
VH 1: B14 VH
VH 2: B11 VH 2
VL: not shown
modifications: conjugated with SMCC-DM1 diastereomer (Maytansinoid A); residues and chain of attachment not stated
B16: H4H13312P2 (antibody, human IgG4, V domains shown)
VH: B11 VH 2
VL: not shown

The target of one test is T1, human MET (c-Met, hepatocyte growth factor receptor), endogenous on human cell lines (human, UniProt P08581 25-1390). Put plainly: cell-based or functional assay.
T1 sequence (P08581 25-1390 limits assumed, form in doubt): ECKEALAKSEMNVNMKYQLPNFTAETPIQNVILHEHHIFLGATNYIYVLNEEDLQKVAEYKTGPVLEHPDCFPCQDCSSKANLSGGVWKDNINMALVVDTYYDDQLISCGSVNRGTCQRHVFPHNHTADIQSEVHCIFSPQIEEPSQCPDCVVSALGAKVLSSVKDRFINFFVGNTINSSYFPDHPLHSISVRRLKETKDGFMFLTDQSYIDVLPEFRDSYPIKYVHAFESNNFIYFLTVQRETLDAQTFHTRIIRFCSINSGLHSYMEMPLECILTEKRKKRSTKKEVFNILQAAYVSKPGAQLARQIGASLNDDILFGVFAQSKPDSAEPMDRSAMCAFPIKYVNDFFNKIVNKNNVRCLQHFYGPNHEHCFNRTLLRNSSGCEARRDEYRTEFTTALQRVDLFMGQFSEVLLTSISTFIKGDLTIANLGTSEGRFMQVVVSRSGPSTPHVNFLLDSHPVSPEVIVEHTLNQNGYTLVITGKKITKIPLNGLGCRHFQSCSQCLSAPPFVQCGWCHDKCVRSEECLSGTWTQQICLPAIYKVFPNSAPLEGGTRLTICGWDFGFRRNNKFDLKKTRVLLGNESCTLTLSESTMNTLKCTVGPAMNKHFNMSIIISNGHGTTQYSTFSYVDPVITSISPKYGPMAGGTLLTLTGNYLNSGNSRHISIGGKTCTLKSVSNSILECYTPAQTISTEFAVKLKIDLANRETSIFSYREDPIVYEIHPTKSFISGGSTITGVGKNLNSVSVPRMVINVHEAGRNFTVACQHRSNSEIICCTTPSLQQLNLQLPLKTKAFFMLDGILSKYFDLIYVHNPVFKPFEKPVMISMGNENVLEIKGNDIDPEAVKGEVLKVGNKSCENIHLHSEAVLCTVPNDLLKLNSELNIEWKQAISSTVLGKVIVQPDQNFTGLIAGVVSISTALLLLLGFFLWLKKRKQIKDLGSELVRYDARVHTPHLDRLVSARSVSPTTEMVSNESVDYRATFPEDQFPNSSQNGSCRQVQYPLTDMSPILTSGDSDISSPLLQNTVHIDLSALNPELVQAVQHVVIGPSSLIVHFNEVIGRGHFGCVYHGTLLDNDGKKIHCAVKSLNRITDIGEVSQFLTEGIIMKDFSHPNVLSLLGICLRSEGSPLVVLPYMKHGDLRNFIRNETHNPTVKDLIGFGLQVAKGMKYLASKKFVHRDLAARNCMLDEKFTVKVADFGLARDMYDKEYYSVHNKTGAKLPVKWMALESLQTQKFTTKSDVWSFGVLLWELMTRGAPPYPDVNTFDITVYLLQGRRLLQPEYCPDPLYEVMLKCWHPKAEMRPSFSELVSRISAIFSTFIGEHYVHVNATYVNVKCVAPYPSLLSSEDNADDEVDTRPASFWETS
With B1, the “% Inhibition (HEK293/SRE-Luc Blocking Activity, 1 h mAb pre-bind)” value came to 70%; the “EC50 (Ligand (HGF)-Independent HEK293/SRE-Luc Activation)” value amounted to 0.3 nM; the “Fold Response (Ligand (HGF)-Independent HEK293/SRE-Luc Activation)” value was 2.8 fold; the “IC50 (HEK293/SRE-Luc Blocking Activity, 1 h mAb pre-bind)” value turned out to be 0.055 nM.

Consider B2, for which the “% Inhibition (HEK293/SRE-Luc Blocking Activity, 1 h mAb pre-bind)” value is 67%; the “EC50 (Ligand (HGF)-Independent HEK293/SRE-Luc Activation)” value came out at 0.18 nM; the “Fold Response (Ligand (HGF)-Independent HEK293/SRE-Luc Activation)” value came to 4.8 fold; the “IC50 (HEK293/SRE-Luc Blocking Activity, 1 h mAb pre-bind)” value was found to be 0.052 nM.

B3: the “% Inhibition (HEK293/SRE-Luc Blocking Activity, 1 h mAb pre-bind)” value was 61%; the “EC50 (Ligand (HGF)-Independent HEK293/SRE-Luc Activation)” value was 0.39 nM; the “Fold Response (Ligand (HGF)-Independent HEK293/SRE-Luc Activation)” value amounted to 2.7 fold; the “IC50 (HEK293/SRE-Luc Blocking Activity, 1 h mAb pre-bind)” value came out at 0.13 nM.

On to B4, for which the “% Inhibition (HEK293/SRE-Luc Blocking Activity, 1 h mAb pre-bind)” value was found to be 56%; the “EC50 (Ligand (HGF)-Independent HEK293/SRE-Luc Activation)” value is less than 0.002 nM; the “Fold Response (Ligand (HGF)-Independent HEK293/SRE-Luc Activation)” value was determined as 9.8 fold; the “IC50 (HEK293/SRE-Luc Blocking Activity, 1 h mAb pre-bind)” value was less than 0.002 nM.

For B5, the “% Inhibition (HEK293/SRE-Luc Blocking Activity, 1 h mAb pre-bind)” value turned out to be 62%; the “EC50 (Ligand (HGF)-Independent HEK293/SRE-Luc Activation)” value is 0.3 nM; the “Fold Response (Ligand (HGF)-Independent HEK293/SRE-Luc Activation)” value worked out at 5.2 fold; the “IC50 (HEK293/SRE-Luc Blocking Activity, 1 h mAb pre-bind)” value amounted to 0.035 nM.

Regarding B6, the “% Inhibition (HEK293/SRE-Luc Blocking Activity, 1 h mAb pre-bind)” value stood at 75%; the “EC50 (Ligand (HGF)-Independent HEK293/SRE-Luc Activation)” value turned out to be 0.0023 nM; the “Fold Response (Ligand (HGF)-Independent HEK293/SRE-Luc Activation)” value was determined as 7.1 fold; the “IC50 (HEK293/SRE-Luc Blocking Activity, 1 h mAb pre-bind)” value was less than 0.01 nM.

For B7, the “% Inhibition (HEK293/SRE-Luc Blocking Activity, 1 h mAb pre-bind)” value is 77%; the “EC50 (Ligand (HGF)-Independent HEK293/SRE-Luc Activation)” value worked out at 0.39 nM; the “Fold Response (Ligand (HGF)-Independent HEK293/SRE-Luc Activation)” value is 9.2 fold; the “IC50 (HEK293/SRE-Luc Blocking Activity, 1 h mAb pre-bind)” value was 0.2 nM.

Turning to B8, the “% Inhibition (HEK293/SRE-Luc Blocking Activity, 1 h mAb pre-bind)” value was found to be 69%; the “EC50 (Ligand (HGF)-Independent HEK293/SRE-Luc Activation)” value was 0.48 nM; the “Fold Response (Ligand (HGF)-Independent HEK293/SRE-Luc Activation)” value was 2.8 fold; the “IC50 (HEK293/SRE-Luc Blocking Activity, 1 h mAb pre-bind)” value worked out at 0.12 nM.

Take B9: the “% Inhibition (HEK293/SRE-Luc Blocking Activity, 1 h mAb pre-bind)” value was 77%; the “Fold Response (Ligand (HGF)-Independent HEK293/SRE-Luc Activation)” value stood at 3.1 fold; the “IC50 (HEK293/SRE-Luc Blocking Activity, 1 h mAb pre-bind)” value turned out to be 0.1 nM.

As to B10, the “% Inhibition (HEK293/SRE-Luc Blocking Activity, 1 h mAb pre-bind)” value was 51%; the “EC50 (Ligand (HGF)-Independent HEK293/SRE-Luc Activation)” value was 0.0037 nM; the “Fold Response (Ligand (HGF)-Independent HEK293/SRE-Luc Activation)” value stood at 14.4 fold.

As for B11, the “% Inhibition (HEK293/SRE-Luc Blocking Activity, 1 h mAb pre-bind)” value turned out to be 89%; the “EC50 (Ligand (HGF)-Independent HEK293/SRE-Luc Activation)” value turned out to be 6.8 nM; the “Fold Response (Ligand (HGF)-Independent HEK293/SRE-Luc Activation)” value stood at 2.5 fold; the “IC50 (HEK293/SRE-Luc Blocking Activity, 1 h mAb pre-bind)” value is 0.52 nM.

B12: the “% Inhibition (HEK293/SRE-Luc Blocking Activity, 1 h mAb pre-bind)” value amounted to 85%; the “EC50 (Ligand (HGF)-Independent HEK293/SRE-Luc Activation)” value came out at 0.09 nM; the “Fold Response (Ligand (HGF)-Independent HEK293/SRE-Luc Activation)” value amounted to 3.4 fold; the “IC50 (HEK293/SRE-Luc Blocking Activity, 1 h mAb pre-bind)” value stood at 0.0097 nM.

On to B13, for which the “% Inhibition (HEK293/SRE-Luc Blocking Activity, 1 h mAb pre-bind)” value was 85%; the “EC50 (Ligand (HGF)-Independent HEK293/SRE-Luc Activation)” value stood at 1.4 nM; the “Fold Response (Ligand (HGF)-Independent HEK293/SRE-Luc Activation)” value came to 2.2 fold; the “IC50 (HEK293/SRE-Luc Blocking Activity, 1 h mAb pre-bind)” value turned out to be 0.19 nM.

Take B14: the “EC50 (Ligand (HGF)-Independent HEK293/SRE-Luc Activation)” value stood at 0.013 nM.

Another test has as its target T1, human MET (c-Met, hepatocyte growth …). Put plainly: cell-based or functional assay. The source holds these as a separate data set.
Consider B15, for which the “IC50 (nM), 3-day in vitro cytotoxicity assay, MDA-MB-231 cells (low MET)” value is greater than 100 nM; the “IC50 (nM), 3-day in vitro cytotoxicity assay, SNU-5 cells” value came out at 0.4 nM; the “IC50 (nM), 3-day in vitro cytotoxicity assay, U87MG cells (low MET)” value stood at 100 nM.

In a further test the target is human MET (c-Met, HGFR) endogenously expressed on cell lines (human, UniProt P08581 25-1390). Put plainly: cell-based or functional assay.
human MET (c-Met, HGFR) endogenously expressed on cell lines, sequence (P08581 25-1390): as the sequence (P08581 25-1390 limits assumed, form in doubt) above
With B16, the “EC50 (read off the curve), HGF-independent SRE-luciferase activation” value is roughly 0.4 nM.

A further test concerns the target T1, human MET (c-Met, hepatocyte growth …). Kind of test: flow cytometry, A549 cells (endogenous MET), antibody 10 ug/ml. On the procedure: (§1) After one additional wash with FACS buffer, samples were fixed with Cytofix (BD Biosciences, #554655), filtered with FACS buffer and run on an iQue flow cytometer (Intelicyte). Mean fluorescence intensity (MFI) data was determined using FlowJo software (FlowJo LLC).
With B13, the “FACS Binding (MFI Fold Above Isotype Control)” value turned out to be 12 fold.

The next test has the same target. Put plainly: flow cytometry, EBC-1 cells (endogenous MET), antibody 10 ug/ml. How it is done: as §1
Background: Flow cytometry measures light scatter and fluorescence of single cells or particles in a stream.
As to B13, the “FACS Binding (MFI Fold Above Isotype Control)” value is 263 fold.

Another test shares this target. Put plainly: flow cytometry, SNU-5 cells (endogenous MET), antibody 10 ug/ml. How it is done:
as §1
With B13, the “FACS Binding (MFI Fold Above Isotype Control)” value was 477 fold.

For another test the target is unchanged. Put plainly: flow cytometry, Hs746t cells (endogenous MET), antibody 10 ug/ml. On the procedure:
as §1
Take B13: the “FACS Binding (MFI Fold Above Isotype Control)” value was 39 fold.

Another test shares this target. Put plainly: flow cytometry, MKN-45 cells (endogenous MET), antibody 10 ug/ml. On the procedure: as §1
With B13, the “FACS Binding (MFI Fold Above Isotype Control)” value stood at 183 fold.

For another test the target is unchanged. Put plainly: flow cytometry, U87MG cells (endogenous MET, low), antibody 10 ug/ml. On the procedure: as §1
As for B13, the “FACS Binding (MFI Fold Above Isotype Control)” value stood at 18 fold.

A further test has the same target. Kind of test: flow cytometry, MDA-MB-231 cells (endogenous MET, low), antibody 10 ug/ml. On the procedure:
as §1
As for B13, the “FACS Binding (MFI Fold Above Isotype Control)” value came to 11 fold.
